The values that follow come from paper PMC3866087, “Heat Shock Transcription Factor σ^32 Co-opts the Signal Recognition Particle to Regulate Protein Homeostasis in E. coli” (PLoS Biology, 2013).

This assay concerns the target T1, purified SecA (E. coli, UniProt P10408 1-901).
T1 construct: SecA, ATP-fueled motor protein of the Sec translocon of E. coli, purified; source: purified essentially as described [82]
Kind of assay: far-Western, overlay or dot blot; purified FtsY, Ffh, SecA or Ffh partially digested by Glu-C (V8) resolved on 10% SDS-PAGE, transferred to nitrocellulose, re-natured, incubated with purified WTσ^32, probed with polyclonal anti-σ^32. The note with it: both partners purified.

T1 sequence (P10408 whole entry): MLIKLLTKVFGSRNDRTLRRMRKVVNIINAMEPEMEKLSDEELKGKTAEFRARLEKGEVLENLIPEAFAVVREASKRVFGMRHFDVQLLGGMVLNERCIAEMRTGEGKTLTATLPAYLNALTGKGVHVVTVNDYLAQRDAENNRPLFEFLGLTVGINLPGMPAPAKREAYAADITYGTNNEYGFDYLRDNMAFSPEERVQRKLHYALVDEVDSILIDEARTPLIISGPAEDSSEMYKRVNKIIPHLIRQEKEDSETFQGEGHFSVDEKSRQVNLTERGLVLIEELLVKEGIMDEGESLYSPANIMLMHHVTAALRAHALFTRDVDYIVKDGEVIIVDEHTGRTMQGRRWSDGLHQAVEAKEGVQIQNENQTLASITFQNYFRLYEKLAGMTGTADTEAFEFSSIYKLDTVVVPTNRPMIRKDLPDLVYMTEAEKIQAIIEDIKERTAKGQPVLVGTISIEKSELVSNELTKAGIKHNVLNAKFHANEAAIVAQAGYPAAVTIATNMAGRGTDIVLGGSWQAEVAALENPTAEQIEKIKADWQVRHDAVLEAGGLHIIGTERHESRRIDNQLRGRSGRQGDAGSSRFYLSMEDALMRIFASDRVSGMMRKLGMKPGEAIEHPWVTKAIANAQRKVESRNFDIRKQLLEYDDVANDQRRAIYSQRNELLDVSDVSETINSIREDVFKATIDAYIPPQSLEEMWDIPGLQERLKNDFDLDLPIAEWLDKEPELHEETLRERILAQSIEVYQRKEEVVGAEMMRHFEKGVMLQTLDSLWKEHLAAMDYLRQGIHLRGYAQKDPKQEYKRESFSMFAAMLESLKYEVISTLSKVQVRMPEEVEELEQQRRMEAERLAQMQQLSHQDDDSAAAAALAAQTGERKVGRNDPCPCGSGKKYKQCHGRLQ

B1: purified WTσ^32 (natural protein, E. coli, UniProt P0AGB3 1-284, looked up)
chain: MTDKMQSLALAPVGNLDSYIRAANAWPMLSADEERALAEKLHYHGDLEAAKTLILSHLRFVVHIARNYAGYGLPQADLIQEGNIGLMKAVRRFNPEVGVRLVSFAVHWIKAEIHEYVLRNWRIVKVATTKAQRKLFFNLRKTKQRLGWFNQDEVEMVARELGVTSKDVREMESRMAAQDMTFDLSSDDDSDSQPMAPVLYLQDKSSNFADGIEDDNWEEQAANRLTDAMQGLDERSQDIIRARWLDEDNKSTLQELADRYGVSAERVRQLEKNAMKKLRAAIEA
notes: RNA polymerase sigma factor σ^32 (RpoH) of E. coli, wild type, purified; called full-length in the discussion; The methods list 6×H-tagged, Strep-6×H-tagged and untagged σ^32; also called full-length σ^32; source: purified essentially as described [80]; chaperones removed with a wash of ATP, MgCl2 and two peptides
On to B1, for which the binding result is recorded as “binds”.
